Experimental data taken from publication PMC11620640.

Each substance was assayed against SARS-CoV-2 Omicron BA.2 spike RBD (UniProt P0DTC2) (assay: SPR).

Substance | Kd [nM]
raccoon dog ACE2 (rdACE2), peptidase domain (PD), wild type (from UniProt B4XEP4) E38D | 245
raccoon dog ACE2 (rdACE2), peptidase domain (PD), wild type (from UniProt B4XEP4) L24Q | 283
raccoon dog ACE2 (rdACE2), peptidase domain (PD), wild type (from UniProt B4XEP4) R353K | 136
